# Biological target: RSV prefusion F (preF, DS-Cav1) (Respiratory syncytial virus)
# Test: BLI, IgG on sensor, 100 nM antigen
row,Binder,Kd
1,"ADI-41257 (antibody, V domains shown) VH: QVQLVESGAEVKKPGSSVKVSCKASEGTFSSYGISWVRQAPGQGPEWMGEINPMFGTAKYAQKFQGRVTITVDESTSTADMELSSLTSEDTAVYYCAREFLGQCSETNCPTPSRHLDYWGQGTLVTVSS VL: EIVMTQSPSSLSASVGDRVTITCRASRTISSYLNWYQQKPGKAPKLLIYATSNLQSGVPSRFSGSGSGADFTLTISSLQPEDFATYYCQQTYSTPGFGPGTKVDIK",3.81 nM
2,"ADI-41349 (antibody, V domains shown) VH: EVQLLESGGGLVQPGRSLRLSCTGSGFTFGDYAMNWVRQAPGKGLEWVGLIRSKDYGGTTEFAASLKGRLTISRDDSKSIAYLQMHSLKTEDSAVYYCTRAHLTDYTDINGYQYYFDYWGQGSPVTVSS VL: DIQMTQSPSSLSASVGDRVTITCQASQDISNFLNWYQQRPGKAPKLLIHDASNLETGVPSRFSGSGSRTEFTFTISSLQPEDIGTYYCQHYDNFPYTFGQGTKVEIK",6.25 nM
3,"ADI-41317 (antibody, V domains shown) VH: EVQLVESGGGLVQPGGSLRLSCEASRFKFSTFWMAWVRQAPGKGLEWVANIKQDGSETYYLDSVKGRFTISRDNAKNSLFLQMKSLRAEDTAVYYCAGLWWGDLENWFDPWGQGTLVTVSS VL: QSVLTQPPSVSGAPGQRVTISCTGSSSNLGTGFDVHWYRQLPGTAPQLLIYGSTNRPSGVPDRFSGSKYGTSASLAITGLQAEDEADYYCQSYDSNLRAYVFGTVTKVTVL",48.2 nM
4,"ADI-41288 (antibody, V domains shown) VH: EVQLVESGGGLVQPGGSLRLSCAASGFTFSSYAMSWVRQAAGKGLEWVSAISGSGDDTFYADSVKDRFIISRDSSKRKVYLQMNSLRVEDTAVYYCAKTDIMVTFGGVVVDAYYFDHWGQGTLVTVSS VL: ETTLTQSPGTLSLSPGERATLSCRASQFVFRSYLAWYQQRPGQPPRLLIYGASSRATGIPDRFSGRGSGTEFTLTISRLEPEDFAMYYCQHYDSSPPGTFGGGTKVEIK",8.99 nM
5,"ADI-41340 (antibody, V domains shown) VH: QVQLVQSGAEVKTPGSSVKVSCKASGGTFRSYPITWVRQAPGQGLEWMGTVIPVFDTVNYAPKFQGRVSITADESTNTAYMELSSLRSDDSAVYYCARDLGWLRPMTTVTSPHFDYWGQGTLVTVSS VL: QSVLTQPASVSGSPGQSITISCTGTSSDVGGYDFVSWYQQHPGKAPKLMISEVTDRPSGVSNRFSGSKSGNTASLTISGLQAEDEADYYCTSYTSSRTYVFGTGTKLTVL",3.51 nM
6,"ADI-41237 (antibody, V domains shown) VH: EVQLVESGGGLVKPGGSLRLSCAASGFTFSDYYMNWIRQAPGKGLEWVSDISPSSSYTNYADSVKGRFTISRDNAKNSLYLQMNSLRAEDTAMYYCARRGSCTGGVCSFDYWGQGTLVTVSS VL: QPGLTQPPSVSGAPGQRVTISCTGSSSNIGAGYDVNWYQQLPGTAPKLLIYDNSNRPSGVPDRFSGSKSGTSASLAITGLQAEDEADFYCQSYDSSLSGFVFGTGTKVTVL",0.794 nM
7,"ADI-41245 (antibody, V domains shown) VH: QVQLVESGGGLVKPGGSLRLSCAASGFSFSAYYMSWIRQAPGKGLEWISNISGGSSYANYADSVEGRFTISRDNAKNSLYLQMNSLRAEDTAVYYCAREFQTYYYMDVWGKGTTVTVSS VL: QPVLTQPPSVSGAPGQRVTISCTGSSSNIGAGYEVHWYQQLPGTAPKLLIYGNNNRPSGVPDRFSGSKSGTSASLAITGLQAEDEADYYCQSYDSSLSGSVFGGGTKLTVL",0.775 nM
8,"ADI-41251 (antibody, V domains shown) VH: EVQLVESGGGLVKPGGSLRLSCAASGFTFSDYYMTWIRQAPGKGLEWVSNISGGSSYTNYADSVKGRFTISRDNAKNSVYLQMNSLRAEDTAVYYCARVGCSGGVCNFFLDYWGQGTLVTVSS VL: QSVLTQPPSVSGAPGQRVTISCTGSSSNIGAGYDVHWYQQLPGTAPKLLIYDNTNRPSGVPDRFSGSKSGTSASLAITGLQAEDEADYYCQSYDSSLSGYVFGTGTKVTVL",0.593 nM
9,"ADI-41343 (antibody, V domains shown) VH: EVQLVESGGGLVKPGGSLRLSCAASGFTFSSYYMNWVRQAPGKGLEWVSSISGGSSYISYADSVKGRFTISRDNAKNSLYLQMNSLRAEDTAVYYCARVDTPMVRGYYFDYWGQGTLVTVSS VL: QSVLTQPPSVSGAPGRRVTISCTGSSSNIGAGYDVHWYQQLPGTAPKLLIFANSNRPSGVPDRFSGSKSGTSASLAITGLQAEDEADYYCQSYDSSLSGSVFGGGTKVTVL",0.721 nM
10,"ADI-41246 (antibody, V domains shown) VH: EVQLLESGPGLVKPSETLSLTCIVSGGSISSYNWNWIRQPPGKGLEWIGYIYNSGSTNYNPSLKSRVTISVDTSKNQFSLKLSSVTAADTAVYYCARYFDYGSGGFDYWGQGTLVTVSS VL: ETTLTQSPGTLSLSPGERATLSCRASQSVTSTYLAWYQQKPGQAPRLLIYGASSRATGIPDRFSGSGSGTDFTLTISRLEPEDFAVYYCQQFDSSLTFGGGTKVEIK",3.08 nM
11,"ADI-41322 (antibody, V domains shown) VH: QVQLVQSGAEVKKPGSSVRVSCKASGGSFSSYATSWVRQAPGQGLEWMGGIIPMYDAVNYAQKFQGRVTITADESTTTAYMELSSLRSEDTAVYYCARSSGYTGTNFFDYWGQGTLVTVSS VL: DIQMTQSPSSVSASVGDRVTITCRASQDISSWLAWYQQKPGKAPKLLIYTASSLQSGVPSRFSGSGSGTDFTLTISRLQPEDFATYYCQQANSFPRVTFGGGTKVEIK",2.98 nM
12,"ADI-41296 (antibody, V domains shown) VH: EVQLVESGVEVKKPGESLKISCRGSGYTFYNYWIAWVRQKPGKGLEYMGTIYLDDSETIYSPSFQGEVTISADKSINTAYLQWNSLKASDTANYYCARQMDFYFDVWGRGTLVTVSS VL: SYELMQPPSVSVSPGQTARITCSGDPLPRESAYWYQQKPGQAPVVIIFNDIERPLGIPERFSGSRSGTTVTLTISGAQAEDEADYYCQSADSRKTFVFGTGTKLTVL",3.35 nM
13,"ADI-41320 (antibody, V domains shown) VH: QVQLVQSGVEVKKPGESLKISCRGFGYSAYNYWIAWVRQKPGKGLEYMGTIYLDDSDTIYSPSFQGEVTISADRSINTAYLQWNSLKASDTANYYCARQMDFYFDVWGRGTLVTVSS VL: QSVLTQPPSVSVSPGQTARITCSGDPLPRESAYWYQQKPGQAPVVVIFNDIERPLGIPARFSGSRSGTTVTLTISGAQAEDEADYYCQSADSRKTFVFGPGTKLTVL",3.2 nM
14,"ADI-41310 (antibody, V domains shown) VH: QVQLVQSGVEVKKPGESLKISCRGSGYSFYNYWIAWVRQKPGKGLEYMGTIYLDDSDTIYSPSFQGEVTISADKSINTAYLQWNSLKASDTANYYCARQMDFYFDVWGRGTLVTVSS VL: SYELTQPPSVSVSPGQTARITCSGDPLPRESAYWYQQKPGQAPVVVIFNDIERPLGIPGRFSGSRSGATATLTINGAQAEDEADYYCQSADSRKTFVFGAGTKLTVL",3.32 nM
15,"ADI-41268 (antibody, V domains shown) VH: EVQLVESGGGLVKPGGSLRLSCVASGFGFTSYSMNWVRQAPGKGLEWVSSISASSTYIHYADSVKGRFTISRDNARNSLYLQMISLRADDTAVYYCSRDGPTYGSGVHVWGQGTMVTVSS VL: QSALIQPVSVSGSPGQSITISCTGTRSDVGGYNYVSWYQQHPGKAPKLMIYEVRNRPSGVSDRFSGSKSGNTASLTISGLQAEDEGDYYCSSYTSSDTLFYVFGSGTKLTVL",0.581 nM
16,"ADI-41253 (antibody, V domains shown) VH: EVQLVQSGPGLVKPSETLSLTCTVSGDSISSSDYSYYWGWIRQPPGKGLEWIASLSYSGKTYSQSSLKSRVIISVDTSKKQFSLKLSSVTAADTAVYYCAVTRCYVCTSEGDSFDMWGQGTMVTVSS VL: DIVLTQTPGTLSLSPGERATLSCRASQSISGNYLAWYQHKPGQAPRLLIYGASTRATGIPDRFSGSGSGTDFPLTISRLEPEDFAVYYCQQYATSPYTFGQGTKVDIK",1.11 nM
17,"ADI-41254 (antibody, V domains shown) VH: EVQLVESGGGLVQSGGSLRLSCAASGFTFSSYEMNWVRQAPGKGLEWVSYTTNNGRTIYYADSVKGRFTISRDNAKNSLFLQMNGLRAEDTAVYYCARGIQFSRVDYAMDVWGQGTTVTVSS VL: SYELTQPPSVSGTPGQRITISCSGSSSNIASNTVNWYQHLPGTAPKLLIYSDNQRPSGVPDRFSGSKSGTSASLAISGLQSEDEADYYCAIWDDSLNASYVFGTGTKLTVL",0.776 nM
18,"ADI-41294 (antibody, V domains shown) VH: EVQLLESGGGLVQPGGSLRLSCAASGFTFSAYEMNWVRQAPGKGLEWVSYISSSGSNKHYADSVKGRFTISRDNAKNSLHLHMNSLRAEDTALYYCTRPHQEEWELLPNDAFDLWGQGTMVTVSS VL: QSALTQPPSASGSPGQSVTISCTGTSTDVGAYTYVSWYQQHPGKAPKLIIYEVYKRPSGVPNRFFGSKSGNTASLTVSGLQAEDEADYYCSSYGGSNNFGLFGGGTKLIVL",0.512 nM
19,"ADI-41238 (antibody, V domains shown) VH: EVQLLESGGGLVKPGGSLRLSCAASGFTFRDYYMSWIRQAPGKGLEWVSYISSSSSYTEYADSVKGRFTISRDNAKKSLYLQMNSLRTEDTAVYYCARVITQAGTGTTYYMDVWGKGTTVTVSS VL: QSVLTQPPSVSGAPGQRVTISCTGSSSNIGTGYDVHWYQQLPGTAPKLLIYANNNRPSGVPDRFSGSKSGTSASLAITGLQAEDEADYYCQSYDSSLSLVFGGGTKLTVL",1.03 nM
20,"ADI-41258 (antibody, V domains shown) VH: QVQLVQSGGGLVQRGGSLRLSCAASGFSFRSYAMSWVRQAPGKGLEWVSSISDSGDNTFYADSVKGRFSISRDNSRDTLYLQMNSLRAEDTAVYYCARGGYCSGGNCFPFDYWGQGTLVTVSS VL: SYELMQLPSVSVSPGQTARITCSGDALPKQYGYWYQQKPGQAPVLVIYKDSERPSGIPERFSGSSSGTTVTLTISGVQAEDEADYYCQSADSGGTYVMFGGGTKLTVL",0.968 nM
21,"ADI-41266 (antibody, V domains shown) VH: QVQLQQSGPGLVKPSQTLSLTCAISGDSVSSNSAAWNWIRQSPSRGLEWLGRTYYRSKWYNDYAVSVKSRITINPDTSKNQFSLQLNSVTPEDTAVYYCARDLPQVDYFDGASFYFFDFWGQGTLVTVSS VL: QPVLTQPPSVSVAPGQTASITCGGNIIGNKGVHWYQQKPGRAPVLVVYDDSDRPSGIPERFSGSNSGNTATLTISRVEAADEADYYCQVWDTGSHPVVFGGGTKVTVL",4.06 nM

# Source: US20260258115A1
